The values that follow come from paper PMC5329690, “A Synthetic Strategy for Conjugation of Paromomycin to Cell-Penetrating Tat(48-60) for Delivery and Visualization into Leishmania Parasites” (International Journal of Peptides, 2017).

The series concerns Leishmania donovani promastigotes. Nature of the series: Intracellular uptake by confocal fluorescence microscopy. It counts as cell-based. As to conditions: L. donovani promastigotes strain MHOM/SD/00/1S-2D, 2 × 10^7 cells/mL in HBSS-Glc; 9 μM conjugate, 4 h, 26°C; washed, DAPI 5 μg/mL, unfixed; confocal fluorescence λex 488 nm/λem 520 nm; representative of two other independent experiments. How it is done:
Leishmania donovani promastigotes (strain MHOM/SD/00/1S-2D) were resuspended in Hanks' medium supplemented with 10 mM D-glucose (HBSS-Glc) at 2 × 10^7 cells/mL. Afterwards, 9 μM Bodi Fluor 488-labeled PMM-Tat conjugate 6 was added to the parasite suspension and incubated for 4 h in HBSS-Glc. After incubation, non-incorporated 6 was removed by washing the cells with HBSS-Glc. Finally, cells were labeled with DAPI (5 μg/mL, 20 min) before their observation, unfixed, in a Leica TCS–SP2 ABOS confocal laser scanning microscope.
Figure 3 Fluorescence of Leishmania donovani promastigotes incubated with Bodi Fluor 488-labeled PMM-Tat conjugate (9 μM, 4 h, 26°C) and stained with DAPI (5 μg/mL) immediately before observation, unfixed. Settings: conjugate (green, λex = 488 nm/λem = 520 nm); DAPI (blue, λex = 350 nm/λem = 460 nm). Bar = 20 μm. Experiment is representative of two other ones performed independently.
4. Parasite culture and confocal microscopy
Leishmania donovani promastigotes (strain MHOM/SD/00/1S-2D) were resuspended in Hanks’ medium supplemented with 10 mM D-glucose (HBSS-Glc) at 2 × 10^7 cells/mL.
Afterwards, 9 µM BodiFluor™ 488-labeled PMM-Tat conjugate was added to the parasite suspension and incubated for 4 h in HBSS-Glc. After incubation, non-incorporated conjugate was removed by washing the cells with HBSS-Glc. […]

For the substance “Bodi Fluor-O2Oc-Tat(48-60)-O2Oc-Asp(paromomycin)-amide [compound 6]”, the “intracellular uptake (internalization and cellular pattern)” value is given as “can enter the parasite, with a diffuse pattern in all the cytoplasm”.
